Data from the nanobody polyreactivity screen of Harvey et al. (2022).

Assay: yeast display, Sf9 membrane polyspecificity reagent, FACS + sequencing; frameworks hold sequencing errors
In short: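 Synthetic nanobody libraries on Saccharomyces cerevisiae BJ5465 were galactose-induced for 36–48 hours, stained 1 hour at 4 °C with 10% biotinylated, detergent-solubilized Sf9 membrane reagent and enriched on streptavidin microbeads. FACS then separated cells into low and high (top ~1%) gates by anti-HA (expression) and streptavidin (reagent binding) fluorescence. Genes were colony-PCR amplified, MiSeq 2 × 250 sequenced and CDR-length filtered. A clone's polyreactivity label is that of its gate of origin.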

Sequence	polyreactivity (PSR sort gate)
QVQHVESGGGLVQAGRSLRLSCAASGFIFRYSAMGWYRPAPGKERELVATITGRGGSTYYADSVKGRFTISRDNAKNTVYLQMNSLIPEDTAVYYCAARARYSPAPYDYWGQGTQVTVSS	high polyreactivity
QVQLVESGGGIVQAGGSLRLTCAASGRIFPTYAMGWYRQAPGKEREMVATINGDGGSTYYAYSVKGRFTISRDNPKNTVYLHMNSLKPEDTSVDYCAKSYPFAAEYDYWGQGSQVTVSS	low polyreactivity
QVLLVESGGGLVQAGGSLRLSGAASGSTFYNYAMGWNRQAPGKERELVASISDDGSTNYADSVKGRFTISRDNAKNTVYLQMNSLKQVDSAVYSCAAVWWLQFGSAWYQMGYWGQGTQVTVSS	low polyreactivity
QVQLVESGGGLVQAGGSLRLSCAASGRIFGLYAMGWYRQATGKERELVAAISSSGGRTYYADSVKGRFTISRDNAKNTVYLQMNSLKPEDTAVYYCAAVYYYRRDGNGYWGQGTQVTVSS	high polyreactivity
QVQLVESGGGLVQAGGCLRLSCAASGSTFSPNAMGWYRQAPGKERELVAAISVSCGTTYYADSVKGRFTISRDNAKNTVYLQMNSLKPEDTAVYYCAAKPYPTDDYWGQGTQVTVSS	low polyreactivity
QVQLVESGGGLVQAGGSLRLSCAASRLTFQQYAMGWYRQAPGKERELVAAITSDGASTNYADSVKGRFTISRDNAKNTVYLQMNSLKPEDTAVYYCAARRRSRQYRYDYWGQGTQVTVSS	high polyreactivity
QVQLVESGGGLVQAGGSLRLSCAASVSTFYGYAMGWYRQAPGKERELVAAITSTVITDYADSVKGRFTISRDNAKNTVYLQMNSLKPEDTAVYYCSADRYDSSQFYYWGQGTQVTVSS	low polyreactivity
LVQLVESGGGLVQAGGSLRLSSAASGLIFGYNAKGWYRQAPGKERELVAASSWSGGRTYYADSVKGRFTISRDNAKNTVYLHMNILKPEDTAVYYCAAVVRHSYFRDDHWGQGTQVTVSS	high polyreactivity
QVQLVESGGGLVQAGGSLRLSCAASGSILVYYAMGWYRQAPGKEREFVAAITRSGGSTYYADSVKGRFTISRDNAKNTVYLQMNSLKPEDTAVYYCNARDVVWKRFTRYDFWGQGTQVTVSS	high polyreactivity
QVQLVESGGGLVQAGGSLRLSCAASGFTFRWYDMGWYRQAPGKERELVAAIDASDGSTYYADSVKGRFTISRDNAKNTVYLQMNSLKPEDTAVYYCAADSYYRYYWGQGTQVTVSS	high polyreactivity
QVQLVESGGGLVQAGGSLRLSCAASGITFISYVKGWYRQAPGKEREVVAAISKRGGSTYYADSVKGRFTISRDNAKNTVYFKINSLKAEDTAVYYCAAKTIPWSVGYDYWGQGTQVTVSS	high polyreactivity
QVQLVESGGGLVQAGGSLRLSCAASGRTLRHYAMGWYRQAPGKERELVAAISSTGSSTYYADSVKGRFTISRDNAKNTVYLQMNSLKPEDTAVYYCAADKYTWDAGGVDYWGQGTQVTVSS	low polyreactivity
QVQLVESGGGLVQAGGSLRLSCAASGRIFYIYAMGWYRQAPGKERELVATISVSGGRTYYADSVKGRFTISRDNAKNTVYLHMNSLKPEDTAVYYCAKEGRFNIHKWYDYWGQGTQVTVSS	low polyreactivity
QVQLQESGGGLVQAGGGLRLSCAESGTISGPHVMRWYRQATGKEREFVAAINVGAYTYYADNVKGRFTISRDNEKNTVYLQMNSLKPEDTAFYYCAAFARYSRRYYYWGQGTQVTVSS	low polyreactivity
QVQLVESGGGLVQAGGRLRLSCAASGLIFWFNTMGWYRQAPGKERELVAAITSGGGSTYYADSVKGRFTISRDNAKNTVYLQMNSLKPEDTAVYYCNAGAGRWRARQWHDYWGQGTQVTVSS	low polyreactivity
QVQLVESGGGLVQAGGSLRLSCAASGRIFKYYARGWYRQAPGKERELVAAISGSGGTHYADSVKGRFTISRDNAKNTVYLQMNSLKPEDTAVYYCAVRWRGNGQGGSWGQGTQVTVSS	high polyreactivity

Sequence	polyreactivity (PSR sort gate)
QDQLVESGGGLVQAGGSLRLSCAASGSIFFARYSMGWYTQAPGKERELVAAITRATSTTYADSVKGRFTISRDNAKNTVYLQMKSLKPEDTAVYYCNADPAYQFDYWGQGTQVTVSS	high polyreactivity
QDQLVESGGGLVQAGGTLRLSGAASGRTFDRNAMGWYRQAPGKAWEVVAGITRSGDSTYADSVKGRFTISRDNAKNTVYLQMNSLKPEDTAVYYCNKEGTVGGTRGYWGQGTQVTVSS	low polyreactivity
QVQLVESGGGLVQAGGSLRLSCAASGSNFVNNAMGWYRQAPGKERELVASITWSGGRTYYADSVKGRFTISRDNAKNTVDLQMNSLKPEDTAVYYCNKRQYSRTFRYGYWGQGTEVTVSS	high polyreactivity
QVQLVESGGGLVQAGGSLRLSCAASGFTFDKNAMGWYRQAPGKERELVAAINIGSTYYADSVKGRFTISRDNAKNTVYLQMNSLKPEDSAVYYCAKEVPSGYWVNYYYWGQGTQVTVSS	low polyreactivity
QVQLVESVGGLVQAGGSLRLSCAASGFTFDYYSMGWYRQATGKERELVAAITTAGSTNYADSVKGRFTISRDNAKNTVSLQINSLKPEDTAVYYCAAYWWPWDISWDDYWGQGTQVNVSS	high polyreactivity
QVQLVESGGGLVQAGGSLRLSCAASGSIFYAYAMGWYRQAPGKEMELVAAIDTSGGRTYYADSVKGRFTISRDNAKNTVYLQLNSLKPEDTAVYYCDAECPCYNEHYYWGQGTQVTVSS	high polyreactivity
QVQLVESGGGLVQARGSLRLSSAASGRTFHYNAMGWYRQAPGKERELVAAISFNGGGTYYADSVKGRFTISRDNAKNTVYLQMNCLKTEDTAVYYCATDVPSRYDYWGQGTQVTVSS	low polyreactivity
QVQLVESGGGLVQAGGSLRLSCAASGTIIYLNAMAWYRQAPGKERELVAAITSGGSTYYADSVKGRFTISRDNAKNTVYVQMNSLKPEDTAVYYCAAFVWSGWGHWFYFWGQGTQVTVSS	high polyreactivity
QVQLVESGGGLFQAGGSLRLSCAASGRIFGLYAMGWYRQAPGKERELVAAISRGGGSTYYADSVKGRFTISRDNAKNTVYLQMNSLKAEDTAFDFCATGLGYFCRLDYWGQGTQLTVSS	low polyreactivity
QVQLVESGGGLVQAGGSLRLTCAASGRIFIGYAMGWYRQAPGKERELVAAISRNGDNTYYADSVKGRFTISRDNAKNTVYLQMISLKPEDSAVYYCAAVAYPRQWKLSYEDGSWGYDYWGQGTQVTVSS	low polyreactivity
QVQLVESGGGLVQAGGSLRLSCAPSGSTFRYNAMGWYRQAPGKERELVAAITFSGDSTSYADSVKGRFTISRDNAKNTVYLQMNSLKPEDTAVYYCAVDTWNGDGSGYSLEFEYWGQGTQVTVSS	low polyreactivity
QVQLVESGGGLVQAGGSLRLSCAASGSTLLYYAMGWYRQAPGKERELVAAINKSGGRTYYADSVKGRFTISRDNAKNTVYLQMNSLKPEDTAVYYCAVDISVTGSSNRYGYWGQGTQVTVSS	high polyreactivity
QVQLVESGGGLVQAGGSLRLSCAASGRTFYKNTMGWYRQAPGKERELVAGISQRGGRTYYADSVKGRFTISRDNANYTVYLQMNSLKPEDTAVYYCAVRSYGHGFDYWGQGNQVTVSS	high polyreactivity
QVQHVESGGGLVQAGGSLRLSCAASGSTFHDYAMAWYRQATGKEREFVAAIRWRGGSTYYADSVKGRFTISRDNAKNTVYLQMNSLKPEDTAVYYCAADYLQFRKYVVHFDYLGQGTQVTVSS	low polyreactivity
QVQIVESGGRIVQAGGSLRLSCAASGSTFGWYTMGWYRQSPGKESELVATISWRGGTTYYADSVKGRFTISRDNAKNTVYLQMNSLKPEDTAVYYCAARRYRASSRGYGYWGQGTQVTVSS	high polyreactivity
QVHLVESGGGLVQAGGSLRLSCAASGFIFWGYAMGWYRPAPVHERELVAAISSDGDTYYADSVKGRFTISLDNAKNTVYLQMNCRKPEESAVYYCNADLYGGGDNSVISGLNGEYEYWGQGTQVTVSS	low polyreactivity
